Data: patent US20050136044A1, “Butyrylcholinesterase variants that alter the activity of chemotherapeutic agents” (priority 2003, published 2005)
“And” between values parts separate entries of the source, which are not always exact repeats. Equal values may be shown once. “Also recorded” adds a separate entry of the source. Read-outs that look alike come from different tables or passages of the source.

Legend:
[1] = CPT-11 conversion to SN-38, fluorescent HPLC detection, conditioned media of transiently expressed BChE variants; assay type: biochemical; conditions: for Fold improvement in CPT-11 conversion: compared to wild-type butyrylcholinesterase, conditioned media exposed to 20 mM CPT-11 for 72 hours at 37° C., SN-38 by HPLC, conservative values; for CPT-11 conversion to SN-38 (SN-38 formation by HPLC), in words: conditioned media, 20 mM CPT-11, 72 hours, 37° C., versus mock / wild-type
Procedure: Butyrylcholinesterase variants were assayed for CPT-11 conversion activity using fluorescent High Performance Liquid Chromotography (HPLC) detection of SN-38 formation as described in Dodds and Rivory, Mol. Pharmacol. 56: 1346-1353 (1999), which is incorporated herein by reference. Briefly, conditioned media from transiently expressed BChE variants were exposed to 20 mM CPT-11 for 72 hours at 37° C. and analyzed by HPLC for SN-38 formation (peak at about 4 minutes column retention time).

[2] = cited from earlier work; for Km: Humerickhouse et al. 2000, read-out: Km (CPT-11 conversion)
[3] = BChE-mediated CPT-11 hydrolysis, SN38 quantitated by reverse-phase HPLC with fluorescence detection; Km by Hofstee plot; assay type: biochemical; conditions: for increase in CPT-11 hydrolysis over wild-type BChE: SN38 peak AUC, wild type 20 μg, BChE.4-1 0.05 μg; for improvement in the Km for CPT-11: versus wild-type / native serum BChE
Procedure: BChE plasmid variants were expressed transiently in the human embryonic kidney cell line 293T and assayed for activity at 72 hours post-transfection. Primary screening of variants was performed by indirect measurement of enzymatic activation of CPT-11 (FIG. 2) in SW48 colon carcinoma cell cytotoxicity assays. […] Functional hits identified in these assays were characterized by sequence analysis of the corresponding DNA from the original preps. […] Enzyme was incubated at 37° C. for 24 hours with CPT-11 over a range of concentrations from 1-80 μM. […] Velocity (v) is in light absorbance units at 540 nm. Substrate concentration [s] is μM CPT-11.
Samples were acidified and resolved by reverse-phase HPLC on a NovaPak C18 column to separate SN38 from unactivated CPT-11. SN38 peak area under the curve (AUC) was used to compare CPT-11 activation by the wild-type enzyme to the optimized BChE.4-1 variant.

Molecule | Fold improvement in CPT-11 conversion [1] [fold] | CPT-11 conversion to SN-38 (SN-38 formation by HPLC), in words [1] | other results
F227A/L286H | >35 | increased CPT-11 conversion to SN-38 | 
F227A/L286S | >50 | significant conversion; also recorded: increased CPT-11 conversion to SN-38 | Fold improvement in CPT-11 conversion ([1]; listed as F227A/L268S): ≥ 50 fold
hCE-1 |  |  | Km [2]: 43 µM
F227A (protein, synthetic butyrylcholinesterase variant; VARIANT 227: Xaa = Ala) EDDIIIATKNGKVRGMNLTVFGGTVTAFLGIPYAQPPLGRLRFKKPQSLTKWSDIWNATKYANSCCQNIDQSFPGFHGSEMWNPNTDLSEDCLYLNVWIPAPKPKNATVLIWIYGGGFQTGTSSLHVYDGKFLARVERVIVVSMNYRVGALGFLALPGNPEAPGNMGLFDQQLALQWVQKNIAAFGGNPKSVTLFGESAGAASVSLHLLSPGSHSLFTRAILQSGSXNAPWAVTSLYEARNRTLNLAKLTGCSRENETEIIKCLRNKDPQEILLNEAFVVPYGTPLSVNFGPTVDGDFLTDMPDILLELGQFKKTQILVGVNKDEGTAFLVYGAPGFSKDNNSIITRKEFQEGLKIFFPGVSEFGKESILFHYTDWVDDQRPENYREALGDVVGDYNFICPALEFTKKFSEWGNNAFFYYFEHRSSKLPWPEWMGVMHGYEIEFVFGLPLERRDNYTKAEEILSRSIVKRWANFAKYGNPNETQNNSTSWPVFKSTEQKYLTLNTESTRIMTKLRAQQCRFWTSFFPKVLEMTGNIDEAEWEWKAGFHRWNNYMMDWKNQFNDYTSKKESCVGL |  | produced a small amount of SN-38; also recorded: increased CPT-11 conversion to SN-38 | 
F227A/T284A (protein, synthetic butyrylcholinesterase variant; VARIANT 227: Xaa = Ala; VARIANT 284: Xaa = Ala) EDDIIIATKNGKVRGMNLTVFGGTVTAFLGIPYAQPPLGRLRFKKPQSLTKWSDIWNATKYANSCCQNIDQSFPGFHGSEMWNPNTDLSEDCLYLNVWIPAPKPKNATVLIWIYGGGFQTGTSSLHVYDGKFLARVERVIVVSMNYRVGALGFLALPGNPEAPGNMGLFDQQLALQWVQKNIAAFGGNPKSVTLFGESAGAASVSLHLLSPGSHSLFTRAILQSGSXNAPWAVTSLYEARNRTLNLAKLTGCSRENETEIIKCLRNKDPQEILLNEAFVVPYGXPLSVNFGPTVDGDFLTDMPDILLELGQFKKTQILVGVNKDEGTAFLVYGAPGFSKDNNSIITRKEFQEGLKIFFPGVSEFGKESILFHYTDWVDDQRPENYREALGDVVGDYNFICPALEFTKKFSEWGNNAFFYYFEHRSSKLPWPEWMGVMHGYEIEFVFGLPLERRDNYTKAEEILSRSIVKRWANFAKYGNPNETQNNSTSWPVFKSTEQKYLTLNTESTRIMTKLRAQQCRFWTSFFPKVLEMTGNIDEAEWEWKAGFHRWNNYMMDWKNQFNDYTSKKESCVGL | >7 | increased CPT-11 conversion to SN-38 | 
F227A/L286W (protein, synthetic butyrylcholinesterase variant) EDDIIIATKNGKVRGMNLTVFGGTVTAFLGIPYAQPPLGRLRFKKPQSLTKWSDIWNATKYANSCCQNIDQSFPGFHGSEMWNPNTDLSEDCLYLNVWIPAPKPKNATVLIWIYGGGFQTGTSSLHVYDGKFLARVERVIVVSMNYRVGALGFLALPGNPEAPGNMGLFDQQLALQWVQKNIAAFGGNPKSVTLFGESAGAASVSLHLLSPGSHSLFTRAILQSGSANAPWAVTSLYEARNRTLNLAKLTGCSRENETEIIKCLRNKDPQEILLNEAFVVPYGTPWSVNFGPTVDGDFLTDMPDILLELGQFKKTQILVGVNKDEGTAFLVYGAPGFSKDNNSIITRKEFQEGLKIFFPGVSEFGKESILFHYTDWVDDQRPENYREALGDVVGDYNFICPALEFTKKFSEWGNNAFFYYFEHRSSKLPWPEWMGVMHGYEIEFVFGLPLERRDNYTKAEEILSRSIVKRWANFAKYGNPNETQNNSTSWPVFKSTEQKYLTLNTESTRIMTKLRAQQCRFWTSFFPKVLEMTGNIDEAEWEWKAGFHRWNNYMMDWKNQFNDYTSKKESCVGL | >42 | increased CPT-11 conversion to SN-38 | 
F227A/S287P (protein, synthetic butyrylcholinesterase variant; VARIANT 227: Xaa = Ala; VARIANT 287: Xaa = Pr0) EDDIIIATKNGKVRGMNLTVFGGTVTAFLGIPYAQPPLGRLRFKKPQSLTKWSDIWNATKYANSCCQNIDQSFPGFHGSEMWNPNTDLSEDCLYLNVWIPAPKPKNATVLIWIYGGGFQTGTSSLHVYDGKFLARVERVIVVSMNYRVGALGFLALPGNPEAPGNMGLFDQQLALQWVQKNIAAFGGNPKSVTLFGESAGAASVSLHLLSPGSHSLFTRAILQSGSANAPWAVTSLYEARNRTLNLAKLTGCSRENETEIIKCLRNKDPQEILLNEAFVVPYGTPLXVNFGPTVDGDFLTDMPDILLELGQFKKTQILVGVNKDEGTAFLVYGAPGFSKDNNSIITRKEFQEGLKIFFPGVSEFGKESILFHYTDWVDDQRPENYREALGDVVGDYNFICPALEFTKKFSEWGNNAFFYYFEHRSSKLPWPEWMGVMHGYEIEFVFGLPLERRDNYTKAEEILSRSIVKRWANFAKYGNPNETQNNSTSWPVFKSTEQKYLTLNTESTRIMTKLRAQQCRFWTSFFPKVLEMTGNIDEAEWEWKAGFHRWNNYMMDWKNQFNDYTSKKESCVGL | >6 | increased CPT-11 conversion to SN-38 | 
4-1 variant (protein, synthetic butyrylcholinesterase variant; VARIANT 227: Xaa = Ala) EDDIIIATKNGKVRGMNLTVFGGTVTAFLGIPYAQPPLGRLRFKKPQSLTKWSDIWNATKYANSCCQNIDQSFPGFFGSEMWNPNTDLSEDCLYLNVWIPAPKPKNATVLIWIYGGGFQTGTSSLHVYDGKFLARVERVIVVSMNYRVGALGFLALPGNPEAPGNMGLFDQQLALQWVQKNIAAFGGNPKSVTLFGESAGAASVSLHLLSPGSHSLFTRAILQSGSXNAPWAVTSLYEARNRTLNLAKLTGCSRENETEIIKCLRNKDPQEILLNEAFVVPYGTNLSVNFGPTVDGDFLTDMPDILLELGQFKKTQILVGVNKDEGTAFLAYGAPGFSKDNNSIITRKEFQEGLKIFFPGVSEFGKESILFHYTDWVDDQRPENYREALGDVVGDYNFICPALEFTKKFSEWGNNAFFYYFEHRSSKLPWPEWMGVMHGYEIEFVFGLPLERRDNYTKAEEILSRSIVKRWANFAKYGNPNETQNNSTSWPVFKSTEQKYLTLNTESTRIMTKLRAQQCRFWTSFFPKVLEMTGNIDEAEWEWKAGFHRWNNYMMDWKNQFNDYTSKKESCVGL |  |  | Km ([3]; 37° C., 24 hours, CPT-11 1-80 μM, Hofstee plot): ~7 µM and 6.9 µM; increase in CPT-11 hydrolysis over wild-type BChE ([3]; 37° C., 24 hours): > 3000 fold; increase in CPT-11 hydrolysis over wild-type BChE ([3]; 37° C., 24 hours, listed as H77F, F227A, P285N, V331A): at least a three thousand-fold; increase in CPT-11 hydrolysis over wild-type BChE ([3]; 37° C., 24 hours, listed as SEQ ID NO: 180): at least a three thousand-fold; improvement in the Km for CPT-11 [3]: 5-6 fold; improvement in the Km for CPT-11 ([3]; listed as BChE variant 4-1): 5-6 fold and > 5 fold
hCE-2 (protein, UniProt O00748 27-559, looked up) Cocaine esterase: QDSASPIRTTHTGQVLGSLVHVKGANAGVQTFLGIPFAKPPLGPLRFAPPEPPESWSGVRDGTTHPAMCLQDLTAVESEFLSQFNMTFPSDSMSEDCLYLSIYTPAHSHEGSNLPVMVWIHGGALVFGMASLYDGSMLAALENVVVVIIQYRLGVLGFFSTGDKHATGNWGYLDQVAALRWVQQNIAHFGGNPDRVTIFGESAGGTSVSSLVVSPISQGLFHGAIMESGVALLPGLIASSADVISTVVANLSACDQVDSEALVGCLRGKSKEEILAINKPFKMIPGVVDGVFLPRHPQELLASADFQPVPSIVGVNNNEFGWLIPKVMRIYDTQKEMDREASQAALQKMLTLLMLPPTFGDLLREEYIGDNGDPQTLQAQFQEMMADSMFVIPALQVAHFQCSRAPVYFYEFQHQPSWLKNIRPPHMKADHGDELPFVFRSFFGGNYIKFTEEEEQLSRKMMKYWANFARNGNPNGEGLPHWPLFDQEEQYLQLNLQPAVGRALKAHRLQFWKKALPQKIQELEEPEERHTEL |  |  | catalytic efficiency relative to hCE-1 ([2]; CPT-11 conversion): 60 fold; Km [2]: 3.4 µM; rate of conversion of CPT-11 to SN38 relative to hCE-1 ([2]; at pharmacologically relevant concentrations of the drug (~1-10 μM)): 25-30 fold
